The results in this text go back to patent US20130078234A1 (Daiichi Sankyo, published 2013).

Assay [1] deals with T1, extracellular domain polypeptide of a recombinant B7-H3 variant 2 antigen (R&D Systems, Inc., #2318-B3-050/CF) (human, UniProt Q5ZPR3 29-466).
T1 construct: Bought recombinant protein; also called recombinant B7-H3 antigen; B7-H3 antigen
T1 sequence: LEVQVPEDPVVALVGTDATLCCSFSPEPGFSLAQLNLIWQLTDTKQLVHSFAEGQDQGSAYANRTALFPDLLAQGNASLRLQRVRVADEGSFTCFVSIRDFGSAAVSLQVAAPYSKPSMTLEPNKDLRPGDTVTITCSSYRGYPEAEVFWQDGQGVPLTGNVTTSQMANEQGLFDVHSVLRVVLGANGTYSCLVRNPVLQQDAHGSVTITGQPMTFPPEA
Kind of assay: SPR (Biacore), antibody captured on anti-human IgG, B7-H3 variant 2 extracellular domain as analyte. How it is done:
(§1) The binding property of the humanized M30 antibody to human B7-H3 which is an antigen was measured by a surface plasmon resonance (SPR) device (Biacore, Inc.). According to a common procedure, an anti-human IgG antibody was immobilized on a sensor chip, and then, each of the purified samples of the humanized M30 antibodies obtained in the above 10)-4 was bound thereto. Thereafter, an extracellular domain polypeptide of the B7-H3 variant 2 antigen (manufactured by R&D Systems, Inc., #2318-B3-050/CF) was added thereto at different concentrations, and the amount of the antigen bound to the antibody in a running buffer (phosphate buffer, 0.05% SP20) was measured over time. The measured amount was analyzed with a dedicated software (BIAevaluation) and a dissociation constant (Kd [M]) was calculated. The measurement was performed using the cM30 antibody as a positive control for each measurement operation.
In general terms: In SPR one partner is held on a chip, and binding of the other changes the refractive index at the surface.

Assay [2] concerns the target T1, extracellular domain polypeptide of a …. The assay is described as follows: competition ELISA on plate-coated B7-H3 variant 2 extracellular domain polypeptide; competitor biotinylated M30 (bM30, 5 ug/ml), detected with streptavidin-HRP, OD 450 nm. How it is done:
Each of the extracellular domain polypeptide of the B7-H3 variant 1 (manufactured by R&D Systems, Inc., #1949-B3-050/CF) and the extracellular domain polypeptide of the B7-H3 variant (manufactured by R&D Systems, Inc., #2318-B3-050/CF) was diluted to 0.5 μg/ml with a coating buffer and the resulting solution was dispensed at 100 μL/well in an immunoplate (manufactured by Nunc, Inc., #442404). Then, the plate was left to stand overnight at 4° C., whereby the protein was adsorbed to the plate. On the next day, an assay diluent was dispensed at 200 μL/well, and the plate was left to stand at room temperature for 4 hours.
Background: ELISA stands for enzyme-linked immunosorbent assay.

Assay [3] has the same target. Kind of assay: SPR (Biacore), antibody captured on anti-human IgG, B7-H3 variant 2 extracellular domain as analyte; positive control. How it is done:
as §1

The target is the same in assay [4]. The assay is described as follows: SPR, antibody captured on immobilized anti-human IgG, B7-H3 variant 2 extracellular domain as analyte; cM30 chimeric antibody, captured on anti-human IgG; experiment 8)-1. How it is done:
(§2) The affinity between the M30 antibody or the cM30 antibody and the B7-H3 antigen was measured by a surface plasmon resonance (SPR) device (GE Healthcare Corporation). According to a common procedure, an anti-mouse IgG or an anti-human IgG antibody was immobilized on a sensor chip, and then, the M30 antibody sample or the cM30 antibody was bound thereto. Thereafter, an extracellular domain polypeptide of a recombinant B7-H3 variant 2 antigen (manufactured by R&D Systems, Inc., #2318-B3-050/CF) was added thereto at different concentrations, and the amount of the antigen bound to the antibody in a running buffer (phosphate buffer, 0.05% SP20) was measured over time. The measured amount was analyzed with a dedicated software (BIAevaluation Version 4.1, GE Healthcare Corporation) and a dissociation constant was calculated.

Assay [5] addresses B7-H1 (B7 family protein, on transfected 293T cells) (Homo sapiens (Human), UniProt Q9NZQ7 19-290). The assay is described as follows: flow cytometry on transfected 293T cells. For orientation: Flow cytometry measures light scatter and fluorescence of single cells or particles in a stream.
For assay [6], the target named is T2, B7RP-1 (B7 family protein, on transfected 293T cells) (Homo sapiens (Human), UniProt O75144 19-302).
T2 sequence: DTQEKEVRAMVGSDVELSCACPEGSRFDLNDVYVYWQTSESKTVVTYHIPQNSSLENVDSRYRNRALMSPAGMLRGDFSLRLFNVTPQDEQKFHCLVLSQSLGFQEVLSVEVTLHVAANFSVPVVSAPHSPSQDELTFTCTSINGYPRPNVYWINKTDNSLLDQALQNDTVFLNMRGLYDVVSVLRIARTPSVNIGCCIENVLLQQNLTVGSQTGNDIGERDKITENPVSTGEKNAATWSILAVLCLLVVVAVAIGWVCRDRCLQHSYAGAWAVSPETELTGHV
The assay is described as follows: flow cytometry on transfected 293T cells.

Assay [7] deals with T3, B7-H4 (B7 family protein, on transfected 293T cells) (Homo sapiens (Human), UniProt Q7Z7D3 25-282).
T3 sequence: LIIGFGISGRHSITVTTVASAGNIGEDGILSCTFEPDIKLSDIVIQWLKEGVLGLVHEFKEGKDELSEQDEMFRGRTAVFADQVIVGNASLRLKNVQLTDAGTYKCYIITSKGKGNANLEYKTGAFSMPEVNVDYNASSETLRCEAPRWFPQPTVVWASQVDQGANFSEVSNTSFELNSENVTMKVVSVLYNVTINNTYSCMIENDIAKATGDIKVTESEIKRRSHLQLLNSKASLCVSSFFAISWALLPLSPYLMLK
The assay is described as follows: flow cytometry on transfected 293T cells.

In assay [8] the target is T4, CD86 (B7 family protein, on transfected 293T cells) (Homo sapiens (Human), UniProt P42081 24-329).
T4 sequence: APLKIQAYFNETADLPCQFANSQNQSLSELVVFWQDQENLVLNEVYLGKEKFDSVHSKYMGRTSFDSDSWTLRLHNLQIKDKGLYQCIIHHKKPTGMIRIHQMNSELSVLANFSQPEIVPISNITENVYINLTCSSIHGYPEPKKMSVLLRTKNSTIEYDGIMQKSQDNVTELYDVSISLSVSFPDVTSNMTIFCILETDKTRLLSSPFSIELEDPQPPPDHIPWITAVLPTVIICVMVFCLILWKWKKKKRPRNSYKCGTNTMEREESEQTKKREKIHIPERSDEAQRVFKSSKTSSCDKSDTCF
Kind of assay: flow cytometry on transfected 293T cells.

Assay [9] addresses T5, CD80 (B7 family protein, on transfected 293T cells) (Homo sapiens (Human), UniProt P33681 35-288).
T5 sequence: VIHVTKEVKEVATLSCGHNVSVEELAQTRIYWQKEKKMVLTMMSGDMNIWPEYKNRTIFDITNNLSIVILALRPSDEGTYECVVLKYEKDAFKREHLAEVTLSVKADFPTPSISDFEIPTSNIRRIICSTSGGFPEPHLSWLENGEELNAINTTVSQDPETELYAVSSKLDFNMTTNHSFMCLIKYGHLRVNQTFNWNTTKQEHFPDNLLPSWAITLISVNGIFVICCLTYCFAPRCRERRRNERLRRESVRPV
Kind of assay: flow cytometry on transfected 293T cells.

Assay [10] concerns the target T6, B7-H3 IgV2 (B7-H3 partial protein, on transfected NIH-3T3 cells) (human, UniProt Q5ZPR3 245-534).
T6 construct: expressed on cells from pFLAG-myc-CMV-19-DEST; leader or tag from the vector not described
T6 sequence: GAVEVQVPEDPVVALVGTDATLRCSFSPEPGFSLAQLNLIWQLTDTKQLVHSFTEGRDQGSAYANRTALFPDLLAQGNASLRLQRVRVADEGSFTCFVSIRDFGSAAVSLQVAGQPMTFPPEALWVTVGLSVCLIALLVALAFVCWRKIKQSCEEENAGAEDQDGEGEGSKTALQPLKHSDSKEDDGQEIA
Kind of assay: flow cytometry on NIH-3T3 cells transfected with the B7-H3 IgV2 expression vector; fluorescein anti-mouse IgG secondary; FL1 Log histogram. How it is done:
(§3) The binding specificity, for B7-H3, of the antibody produced by the hybridoma which immunoprecipitated the B7-H3 variant 1 identified by MS was confirmed by a flow cytometric method. The cell suspension prepared in Example 3)-2 was centrifuged, and the supernatant was removed. Then, the hybridoma culture supernatant was added to the NIH-3T3 cells transfected with each vector to suspend the cells, and the cells were left to stand at 4° C. for 1 hour.
(§4) It was examined as to which domain of B7-H3 the M30 binds by a flow cytometric method in the same manner as in Example 3)-3. The NIH-3T3 cells transfected with each of the expression vectors for B7-H3 partial proteins prepared in Example 1)-1-3 were used.

For assay [11], the target named is T1, extracellular domain polypeptide of a …. The assay is described as follows: SPR, antibody captured on immobilized anti-mouse IgG, B7-H3 variant 2 extracellular domain as analyte; M30 mouse antibody, captured on anti-mouse IgG. How it is done:
as §2

Assay [12] deals with T7, B7-H3 IgV1 (B7-H3 partial protein, on transfected NIH-3T3 cells) (human, UniProt Q5ZPR3 27-534).
T7 construct: expressed on cells from pFLAG-myc-CMV-19-DEST; leader or tag from the vector not described
T7 sequence: T6 sequence with V3L, R23C, T54A, R57Q
The assay is described as follows: flow cytometry on NIH-3T3 cells transfected with the B7-H3 IgV1 expression vector; fluorescein anti-mouse IgG secondary; FL1 Log histogram. How it is done:
as §3, §4

Substitutions are numbered along the chain they refer to.

B7-H1 (B7 family protein, on transfected 293T cells), sequence (Q9NZQ7 19-290 limits assumed): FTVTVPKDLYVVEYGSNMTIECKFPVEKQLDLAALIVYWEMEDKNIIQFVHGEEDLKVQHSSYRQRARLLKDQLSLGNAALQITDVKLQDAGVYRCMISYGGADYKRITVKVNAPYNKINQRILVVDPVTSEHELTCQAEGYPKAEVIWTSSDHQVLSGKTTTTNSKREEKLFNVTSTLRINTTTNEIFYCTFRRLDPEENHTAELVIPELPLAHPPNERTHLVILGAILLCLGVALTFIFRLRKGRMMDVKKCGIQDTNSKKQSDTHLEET

B1: humanized M30 antibody M30-H1-L4 (antibody, human IgG1, kappa, V domains shown)
VH: QVQLVQSGAEVKKPGSSVKVSCKASGYTFTNYVMHWVRQAPGQGLEWMGYINPYNDDVKYNEKFKGRVTITADESTSTAYMELSSLRSEDTAVYYCARWGYYGSPLYYFDYWGQGTLVTVSS
VL: EIVLTQSPATLSLSPGERATLSCRASSRLIYMHWYQQKPGQAPRPLIYATSNLASGIPARFSGSGSGTDFTLTISSLEPEDFAVYYCQQWNSNPPTFGQGTKVEIKR
notes: Human IgG1/kappa; also called M30-H1-L4 antibody
For B1, the Kd in assay [1] is 16 nM. Also, in [2], the “IC50 (read off the curve)” value is roughly 0.5 µg/mL.

B2: humanized M30 antibody M30-H4-L3 (antibody, human IgG1, kappa, V domains shown)
VH: B1 VH with Q1E, R38K, M48I, R67K, V68A, I70Q, A72S, E74K
VL: B1 VL with E1Q, T5S, S22T, Q41S, R44K, P45L, L46W, D69S, F70Y, S76R
notes: Human IgG1/kappa
As to B2, in assay [1], the Kd was 160 nM.

B3: humanized M30 antibody M30-H4-L4 (antibody, human IgG1, kappa, V domains shown)
VH: B1 VH with Q1E, R38K, M48I, R67K, V68A, I70Q, A72S, E74K
VL: B1 VL
notes: Human IgG1/kappa
Take B3: the Kd in [1] was determined as 12 nM.

B4: chimeric antibody M30 (antibody, human IgG1, kappa)
heavy: not shown
light: QIVLSQSPTILSASPGEKVTMTCRASSRLIYMHWYQQKPGSSPKPWIYATSNLASGVPARFSGSGSGTSYSLTISRVEAEDAATYYCQQWNSNPPTFGTGTKLELKRTVAAPSVFIFPPSDEQLKSGTASVVCLLNNFYPREAKVQWKVDNALQSGNSQESVTEQDSKDSTYSLSSTLTLSKADYEKHKVYACEVTHQGLSSPVTKSFNRGEC
notes: Mouse M30 variable regions on human IgG1 / human kappa constant regions; also called cM30; cM30 antibody
On to B4, for which the Kd in assay [3] was 0.73 nM; in assay [4], 3.43 nM. In assay [2], the “IC50 (read off the curve)” value is roughly 0.4 µg/mL.

B5: M30 antibody (mouse anti-human B7-H3 monoclonal antibody produced by B7-H3 hybridoma M30) (antibody, mouse IgG2a, kappa)
heavy: EVQLQQSGPELVKPGASVKMSCKASGYTFTNYVMHWVKQKPGQGLEWIGYINPYNDDVKYNEKFKGKATQTSDKSSSTAYMELSSLTSEDSAVYYCARWGYYGSPLYYFDYWGQGTTLTVSSAKTTAPSVYPLAPVCGDTTGSSVTLGCLVKGYFPEPVTLTWNSGSLSSGVHTFPAVLQSDLYTLSSSVTVTSSTWPSQSITCNVAHPASSTKVDKKIEPRGPTIKPCPPCKCPAPNLLGGPSVFIFPPKIKDVLMISLSPIVTCVVVDVSEDDPDVQISWFVNNVEVHTAQTQTHREDYNSTLRVVSALPIQHQDWMSGKEFKCKVNNKDLPAPIERTISKPKGSVRAPQVYVLPPPEEEMTKKQVTLTCMVTDFMPEDIYVEWTNNGKTELNYKNTEPVLDSDGSYFMYSKLRVEKKNWVERNSYSCSVVHEGLHNHHTTKSFSRTPGK
light: QIVLSQSPTILSASPGEKVTMTCRASSRLIYMHWYQQKPGSSPKPWIYATSNLASGVPARFSGSGSGTSYSLTISRVEAEDAATYYCQQWNSNPPTFGTGTKLELKRADAAPTVSIFPPSSEQLTSGGASVVCFLNNFYPKDINVKWKIDGSERQNGVLNSWTDQDSKDSTYSMSSTLTLTKDEYERHNSYTCEATHKTSTSPIVKSFNRNEC
notes: Mouse IgG2a, kappa; Used as hybridoma culture supernatant in the flow cytometry and as purified antibody in SPR and ELISA; also called mouse antibody M30
As for B5, the binding result in assay [5], in assay [6], in assay [7], in assay [8], in assay [9] and in assay [10] was “no binding” each time. In assay [12], the binding result is listed as “no binding”. Besides, the dissociation constant (Kd) in assay [11] worked out at 5.89 nM. The “IC50 (read off the curve)” value in assay [2] is roughly 0.5 µg/mL.

What is called Kd is the free concentration of one partner at which half of the binding sites on the other are occupied at equilibrium, for simple one-to-one binding.
